The values below come from patent publication US20220119534A1 (DRAGONFLY THERAPEUTICS, published 2022).

Test [1] deals with T1, Human CLEC12A expressed on cells (Ba/F3-hCLEC12A, PL21, HL60) (human, UniProt Q5QGZ9 1-265).
T1 sequence: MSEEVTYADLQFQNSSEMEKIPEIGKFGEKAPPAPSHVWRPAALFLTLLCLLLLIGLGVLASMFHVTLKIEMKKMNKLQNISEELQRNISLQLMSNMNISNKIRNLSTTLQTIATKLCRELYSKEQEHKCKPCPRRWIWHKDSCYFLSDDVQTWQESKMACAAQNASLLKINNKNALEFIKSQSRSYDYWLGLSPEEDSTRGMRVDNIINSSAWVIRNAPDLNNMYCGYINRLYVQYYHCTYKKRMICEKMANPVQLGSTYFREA
In words: cell-based or functional assay.

Test [2] addresses T2, mFc-hNKG2D (recombinant mFc-tagged human NKG2D dimer) (human, UniProt P26718 73-216).
T2 construct: extracellular domain; Made in house; not shown: mouse Fc tag
T2 sequence (looked up): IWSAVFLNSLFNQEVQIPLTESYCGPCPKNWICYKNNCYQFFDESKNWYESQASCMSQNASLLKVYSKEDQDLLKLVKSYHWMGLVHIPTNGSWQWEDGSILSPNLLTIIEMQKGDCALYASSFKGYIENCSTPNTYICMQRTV
In words: SPR 37C, steady state fit, average.

The target of test [3] is T3, Human CLEC12A-His (recombinant, K244 WT) (human, UniProt Q5QGZ9 65-265).
T3 construct: Made in house (Dragonfly Tx); also called hCLEC12A; hCLEC12A-His; not shown: His tag
T3 sequence: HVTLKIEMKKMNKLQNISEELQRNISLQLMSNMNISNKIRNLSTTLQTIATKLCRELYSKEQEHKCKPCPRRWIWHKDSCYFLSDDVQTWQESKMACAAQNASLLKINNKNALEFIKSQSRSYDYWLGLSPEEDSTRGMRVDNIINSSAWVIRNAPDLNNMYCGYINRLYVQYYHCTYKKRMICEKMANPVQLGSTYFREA
In words: SPR, two-state fit (kd1); control sample. (In general: SPR reads the build-up and loss of mass on a sensor chip optically.)

For test [4], the target named is T3, Human CLEC12A-His (recombinant, K244 WT). In words: SPR, two-state fit (kd1); after pH 8, 40C, 2 wks.
The target is the same in test [5]. In words: SPR, two-state fit (ka1); after 4 wks 40C in CST pH 7.0.

B1: AB0089 TriNKET (bispecific antibody, human IgG1, kappa)
chain: QLQLQESGPGLVKPSETLSLTCTVSGFSLTNYGLHWIRQPPGKCLEWIGVIWVGGATDYNPSLKSRVTISVDTSKNQFSLKLSSVQAADTAVYYCAKGDYGDTLDYWGQGTLVTVSSGGGGSGGGGSGGGGSGGGGSDIQMTQSPSSLSASVGDRVTITCHASQNINFWLSWYQQKPGKAPKLLIYEASNLHTGVPSRFSGSGSGTDFTLTISSLQPEDFATYYCQQSHSYPLTFGCGTKLEIKGSDKTHTCPPCPAPELLGGPSVFLFPPKPKDTLMISRTPEVTCVVVDVSHEDPEVKFNWYVDGVEVHNAKTKPREEQYNSTYRVVSVLTVLHQDWLNGKEYKCKVSNKALPAPIEKTISKAKGQPREPRVYTLPPCRDELTKNQVSLTCLVKGFYPSDIAVEWESNGQPENNYKTTPPVLVSDGSFTLYSKLTVDKSRWQQGNVFSCSVMHEALHNHYTQKSLSLSPG
heavy: EVQLVESGGGLVKPGGSLRLSCAASGFTFSSYSMNWVRQAPGKGLEWVSSISSSSSYIYYADSVKGRFTISRDNAKNSLYLQMNSLRAEDTAVYYCARGAPIGAAAGWFDPWGQGTLVTVSSASTKGPSVFPLAPSSKSTSGGTAALGCLVKDYFPEPVTVSWNSGALTSGVHTFPAVLQSSGLYSLSSVVTVPSSSLGTQTYICNVNHKPSNTKVDKKVEPKSCDKTHTCPPCPAPELLGGPSVFLFPPKPKDTLMISRTPEVTCVVVDVSHEDPEVKFNWYVDGVEVHNAKTKPREEQYNSTYRVVSVLTVLHQDWLNGKEYKCKVSNKALPAPIEKTISKAKGQPREPQVCTLPPSRDELTENQVSLTCLVKGFYPSDIAVEWESNGQPENNYKTTPPVLDSDGSFFLYSWLTVDKSRWQQGNVFSCSVMHEALHNHYTQKSLSLSPG
light: DIQMTQSPSSVSASVGDRVTITCRASQGISSWLAWYQQKPGKAPKLLIYAASSLQSGVPSRFSGSGSGTDFTLTISSLQPEDFATYYCQQGVSFPRTFGGGTKVEIKRTVAAPSVFIFPPSDEQLKSGTASVVCLLNNFYPREAKVQWKVDNALQSGNSQESVTEQDSKDSTYSLSSTLTLSKADYEKHKVYACEVTHQGLSSPVTKSFNRGEC
notes: F3' format heterodimer of three chains; human IgG1 Fc with EW-RVT and Y349C/S354C mutations; also called AB0089 Lot AB0089-002; CLEC12A TriNKET AB0089
As to B1, the “EC50, NK cell induction of IFNγ and CD107a in co-culture with HL60 cells (mean of three donors)” value in test [1] was determined as 0.05 nM. For the same molecule, the Kd in test [2] was 884 nM. The dissociation rate constant (koff) in test [3] amounted to 0.0476 s⁻¹; in test [4], 0.049 s⁻¹. Also, the kon in test [5] worked out at 6.31e+06 M⁻¹ s⁻¹.

As a reminder, the Kd is the concentration at which binding is half-saturated. One may read the koff as the rate constant with which the complex falls apart. One may read the kon as the rate constant with which the complex forms.
